Results taken from publication PMC7526519 (2020).
Substitutions are numbered along the chain they refer to.

B1: fulvous fruit bat ACE2 ectodomain fused with mouse Fc (Fc fusion)
chain: QSTPEELAKTFLEKFNTEAEDLFYQSSLASWDFNTNIIDENVQKMSKARATWSAFYDEQSKLAKTYQLDEIQDPELKLQLRILQQSGSSTLSADKTKRLNDILNTMSTIYSTGKICQPNNSQECLLLEPGLDDIMENSKDYSQRLWAWESWRSEVGKQLRPYYEEYVVLKNEMARGENYEDYGDYWRGDYETEGINGSAYTRDQLIEDVDRIFTEIKPLYEQLHAYVRTKLMDAYPSHISPTGCLPAHLLGDMWGRFWINLYPLTVPFEQKPNIDVTDEMVNQNWNAKRIFKEAEKFFVSLGLPNMTETFWEKSVLTEPDNDQKVACHPTAWDLGKGDFRIIMCTKVKMEDFLTAHHEMGHIQYYMAYATQPYLLRDGANEGFHEAVGEVISLSVATPNHLKNMGLLPPDFYEDNETEINFLLKQALNVVGTLPFTYMLEKWRWMVFKGEIPKEQWMEKWWEMKRELVGVVEPLPHDETYCDPASLFHVANDYSFIRYYTRTIFEFQFLEALCQIAQHEGPLYKCDIANSTEAGKKLHQMLSLGKSKPWTLALESIAGTKNMDVRPLLNYFEPLFTWLKEKNRNSFVGWSTDWSPYSGQSIKVRISLKAALGEKAYEWNDNEMYLFKSSIAYSLREYFLKVKNLTIPFGEEDVWVSDLKPRISFNFFVTSPQNVSEFIPRTEVEGAIRMSRSRINDAFRLDDDTLEFLGIEPTLGTPYQPPVT
B2: goat ACE2 ectodomain fused with mouse Fc (Fc fusion)
chain: QSTTEEQAKTFLEKFNHEAEDLSYQSSLASWNYNTNITDENVQKMNEARAKWSAFYEEQSRMARTYSLEEIQNLTLKRQLKALQHSGTSVLSAEKSKRLNMILNKMSTIYSTGKVLDPNTQECLALEPGLDDIMENSRDYNRRLWAWEGWRAEVGKQLRPLYEEYVVLENEMARANNYEDYGDYWRGDYEVTGAGDYDYSRDQLMKDVERTFAEIKPLYEQLHAYVRAKLMNTYPSYISPTGCLPAHLLGDMWGRFWTNLYSLTVPFEHKPSIDVTEKMKNQSWDAERIFKEAEKFFVSIGLPYMTQGFWNNSMLTEPGDGRKVVCHPTAWDLGKGDFRIKMCTKVTMDDFLTAHHEMGHIQYDMAYATQPYLLRNGANEGFHEAVGEIMSLSAATPHYLKALGLLAPDFYEDNETEINFLLKQALTIVGTLPFTYMLEKWRWMVFKGEIPKQQWMEKWWEMKREIVGVVEPLPHDETYCDPACLFHVAEDYSFIRYYTRTIYQFQFHEALCKTAKHEGALFKCDISNSTEAGQRLLQMLRLGKSEPWTLALENIVGIKTMDVKPLLNYFEPLFTWLKEQNRNSFVGWSTEWTPYSDQSIKVRISLKSALGENAYEWNDNEMYLFRSSVAYAMRKYFLEDRNETIPFGEENVWVSDKKPRISFKFFVTSPNNVSDIIPRTEVENAIRLCRDRINDAFQLDDNSLEFLGIQPTLRPPYEPPVT
B3: sheep ACE2 ectodomain fused with mouse Fc (Fc fusion)
chain: B2 chain with E6G, M101T, A213E, N232D, N311D, E639K, D640E
B4: alpaca ACE2 ectodomain fused with mouse Fc (Fc fusion)
chain: QSTTEELAKTFLKEFNHEAEDRSYQSSLASWNYNTNITDENVQKMNDARAKWSTFYEEKSKAAKIYPLEEIENVTLKRQLQALQQSGASALSADKSKRLTTILNTMSSIYSSGEVCDPNNPQECLVLEPGLDDIMENSKDYNQRLWAWEGWRAEVGKQLRPLYEEYVVLKNEMARANNYEDYGDYWRGDYEVMWAGDYDYSRDQLMGDVEHTFAEIKPLYEHLHAYVRAKLMDAYPSRISPTGCLPAHLLGDMWGRFWTNLYSLTVPFGQKPNIDVTEAMENQSWDAKRIFKEAEKFFVSIGLPNMTQGFWDNSMLTEPGDGRKVVCHPTAWDLGKGDFRIKMCTKVTMDDFLTAHHEMGHIQYDMAYAIQPFLLRNGANEGFHEAVGEIMSLSAATPHYLKALGLLPADFYEDSETEINFLLKQALTIVGTLPFTYMLEKWRWMVFKGEIPKEQWMQKWWEMKREIVGVVEPLPHDETYCDPACLFHVAEDYSFIRYYTRTIYQFQFHEALCQIAKHEGPLYKCDISNSTEAGQKLLQMLSLGKSEPWTLALEALVGVKTMDVKPLLNYFEPLLTWLKDQNRNSFVGWSTDWTPYTDQSIKVRISLKSALGDKAYEWNDNEMYLFRSSLAYAMRNYFLTVQKQTILFGVEDVWVSDLKPRISFSFFVTSPKNVSDIIPRTEVEKAIRMSRSRINDAFRLDDNSLEFLGIQPTLGPPYEPP
B5: dog ACE2 ectodomain fused with mouse Fc (Fc fusion)
chain: QSTEDLVKTFLEKFNYEAEELSYQSSLASWNYNINITDENVQKMNNAGAKWSAFYEEQSKLAKTYPLEEIQDSTVKRQLRALQHSGSSVLSADKNQRLNTILNSMSTVYSTGKACNPSNPQECLLLEPGLDDIMENSKDYNERLWAWEGWRSEVGKQLRPLYEEYVALKNEMARANNYEDYGDYWRGDYEEEWENGYNYSRNQLIDDVELTFTQIMPLYQHLHAYVRTKLMDTYPSYISPTGCLPAHLLGDMWGRFWTNLYPLTVPFGQKPNIDVTNAMVNQSWDARKIFKEAEKFFVSVGLPNMTQEFWGNSMLTEPSDSRKVVCHPTAWDLGKGDFRIKMCTKVTMDDFLTAHHEMGHIQYDMAYAAQPFLLRNGANEGFHEAVGEIMSLSAATPNHLKNIGLLPPSFFEDSETEINFLLKQALTIVGTLPFTYMLEKWRWMVFKGEIPKDQWMKTWWEMKRNIVGVVEPVPHDETYCDPASLFHVANDYSFIRYYTRTIYQFQFQEALCQIAKHEGPLHKCDISNSSEAGQKLLEMLKLGKSKPWTYALEIVVGAKNMDVRPLLNYFEPLFTWLKEQNRNSFVGWNTDWSPYADQSIKVRISLKSALGEKAYEWNNNEMYLFRSSIAYAMRQYFSEVKNQTIPFVEDNVWVSDLKPRISFNFSVTSPGNVSDIIPRTEVEEAIRMYRSRINDVFRLDDNSLEFLGIQPTPGPPYEPPVT
B6: wild Bactrian camel ACE2 ectodomain fused with mouse Fc (Fc fusion)
chain: QSTTEELAKTFLEEFNHEAEDLSYQSSLASWNYNTNITDENVQKMNDARAKWSTFYEEKSKTAKTYPLEEIQNVTLKRQLQALQQSGASALSADKSKRLTTVLSTMSTIYSSGEVCDPNNPQECLVLEPGLDDIMENSKDYNQRLWAWEGWRAEVGKQLRPLYEEYVVLKNEMARANNYEDYGDYWRGDYEVMWAGDYDYSRDQLMGDVEHTFAEIKPLYEHLHAYVRAKLMDVYPSHISPTGCLPAHLLGDMWGRFWTNLYSLTVPFGQKPNIDVTEAMENQSWDAKRIFKEAEKFFVSIGLPNMTQGFWDNSMLTEPGDGRKVVCHPTAWDLGKGDFRIKMCTKVTMDDFLTAHHEMGHIQYDMAYAIQPFLLRNGANEGFHEAVGEIMSLSAATPHYLKALGLLPADFYEDSETEINFLLKQALTIVGTLPFTYMLEKWRWMVFKGEIPKEQWMQKWWEMKREIVGVVEPLPHDETYCDPACLFHVAEDYSFIRYYTRTIYQFQFHEALCQIAKHEGPLYKCDISNSTEAGQKLLQMLSLGKSEPWTLALEGLVGVKTMDVKPLLNYFEPLLTWLKDQNRNSFVGWSTDWTPYTDQSIKVRISLKSALGDKAYEWNDNEMYLFQSSLAYAMRKYFLKVQNQTILFGVEDVWVSDLKPRISFSFFVTSPKNVSDIIPRTEVEEAIRMSRSRINDAFRLDDNSLEFLGIQPTLGPPYEPPVT
B7: bovine ACE2 ectodomain fused with mouse Fc (Fc fusion)
chain: QSTTEEQAKTFLEKFNHEAEDLSYQSSLASWNYNTNITDENVQKMNEARAKWSAFYEEQSRMAKTYSLEEIQNLTLKRQLKALQHSGTSALSAEKSKRLNTILNKMSTIYSTGKVLDPNTQECLALEPGLDDIMENSRDYNRRLWAWEGWRAEVGKQLRPLYEEYVVLENEMARANNYEDYGDYWRGDYEVTGAGDYDYSRDQLMKDVERTFAEIKPLYEQLHAYVRAKLMHTYPSYISPTGCLPAHLLGDMWGRFWTNLYSLTVPFEHKPSIDVTEKMENQSWDAERIFKEAEKFFVSISLPYMTQGFWDNSMLTEPGDGRKVVCHPTAWDLGKGDFRIKMCTKVTMDDFLTAHHEMGHIQYDMAYAAQPYLLRNGANEGFHEAVGEIMSLSAATPHYLKALGLLAPDFHEDNETEINFLLKQALTIVGTLPFTYMLEKWRWMVFKGEIPKQQWMEKWWEMKREIVGVVEPLPHDETYCDPACLFHVAEDYSFIRYYTRTIYQFQFHEALCKTAKHEGALFKCDISNSTEAGQRLLQMLRLGKSEPWTLALENIVGIKTMDVKPLLNYFEPLFTWLKEQNRNSFVGWSTEWTPYSDQSIKVRISLKSALGENAYEWNDNEMYLFQSSVAYAMRKYFSEARNETVLFGEDNVWVSDKKPRISFKFFVTSPNNVSDIIPRTEVENAIRLSRDRINDVFQLDDNSLEFLGIQPTLGPPYEPPVT
B8: cat ACE2 ectodomain fused with mouse Fc (Fc fusion)
chain: QSTTEELAKTFLEKFNHEAEELSYQSSLASWNYNTNITDENVQKMNEAGAKWSAFYEEQSKLAKTYPLAEIHNTTVKRQLQALQQSGSSVLSADKSQRLNTILNAMSTIYSTGKACNPNNPQECLLLEPGLDDIMENSKDYNERLWAWEGWRAEVGKQLRPLYEEYVALKNEMARANNYEDYGDYWRGDYEEEWTDGYNYSRSQLIKDVEHTFTQIKPLYQHLHAYVRAKLMDTYPSRISPTGCLPAHLLGDMWGRFWTNLYPLTVPFGQKPNIDVTDAMVNQSWDARRIFKEAEKFFVSVGLPNMTQGFWENSMLTEPGDSRKVVCHPTAWDLGKGDFRIKMCTKVTMDDFLTAHHEMGHIQYDMAYAVQPFLLRNGANEGFHEAVGEIMSLSAATPNHLKTIGLLSPGFSEDSETEINFLLKQALTIVGTLPFTYMLEKWRWMVFKGEIPKEQWMQKWWEMKREIVGVVEPVPHDETYCDPASLFHVANDYSFIRYYTRTIYQFQFQEALCRIAKHEGPLHKCDISNSSEAGKKLLQMLTLGKSKPWTLALEHVVGEKKMNVTPLLKYFEPLFTWLKEQNRNSFVGWNTDWRPYADQSIKVRISLKSALGDEAYEWNDNEMYLFRSSVAYAMREYFSKVKNQTIPFVEDNVWVSNLKPRISFNFFVTASKNVSDVIPRSEVEEAIRMSRSRINDAFRLDDNSLEFLGIQPTLSPPYQPPVT
B9: horse ACE2 ectodomain fused with mouse Fc (Fc fusion)
chain: QSTTEDLAKTFLEKFNSEAEELSHQSSLASWSYNTNITDENVQKMNEAGARWSAFYEEQCKLAKTYPLEEIQNLTVKRQLQALQQSGSSVLSADKSKLNEILNTMSTIYSTGKVCNPSNPQECLLLEPGLDAIMENSKDYNQRLWAWEGWRSEVGKQLRPLYEEYVVLKNEMARANNYEDYGDYWRGDYEAEGPSGYDYSRDQLIEDVERTFAEIKPLYEHLHAYVRAKLMDTYPSHINPTGCLPAHLLGDMWGRFWTNLYSLTVPFGQKPNIDVTDAMVDQSWDAKRIFEEAEKFFVSVGLPNMTQGFWENSMLTEPGDGRKVVCHPTAWDLGKGDFRIKMCTKVTMDDFLTAHHEMGHIQYDMAYAVQPYLLRNGANEGFHEAVGEIMSLSAATPNHLKAIGLLPPDFYEDSETEINFLLKQALTIVGTLPFTYMLEKWRWMVFKGEIPKEEWMKKWWEMKREIVGVVEPVPHDETYCDPAALFHVANDYSFIRYYTRTIYQFQFQEALCQTAKHEGPLHKCDISNSTEAGQKLLQMLSLGKSEPWTLALERIVGVKNMDVRPLLNYFEPLFTWLKDQNKNSFVGWSTNWSPYADQSIKVRISLKSALGEKSYEWNDNEMYLFQSSVAYAMRVYFLKAKNQTILFGEEDVWVSDLKPRISFNFFVTSPKNASDIIPRTDVEEAIRMSRSRINDAFRLDDNTLEFLGIQPTLGPPYQPPVT

These binders were tested against SARS-CoV receptor binding domain (RBD), His-tagged (SARS-CoV, UniProt P59594 306-527) (assay: SPR).

| Binder | Kd [nM] |
| --- | --- |
| B1 | 412 |
| B2 | 308 |
| B3 | 157 |
| B4 | 54.9 |
| B5 | 20 |
| B6 | 69.1 |
| B7 | 89.8 |
| B8 | 69.9 |
| B9 | 141 |

What follows are binders tested against SARS-CoV-2 receptor binding domain (RBD), His-tagged (SARS-CoV-2, UniProt P0DTC2 319-541) (assay: SPR).

| Binder | Kd [nM] |
| --- | --- |
| B1 | 1130 |
| B2 | 157 |
| B3 | 137 |
| B5 | 98.9 |
| B6 | 272 |
| B7 | 73.7 |
| B8 | 85.7 |
| B9 | 133 |
